Data on one substance can be found in paper PMC10310818.

This experiment addresses 2b-3×Flag (pGD-2b-3×Flag) (cucumber mosaic virus (CMV)) (UniProt Q66125).

With “VISP1-GFP (pGDGm-VISP1-GFP) (natural protein)”, the accumulation of 2b-Flag co-expressed with VISP1-Myc, relative to empty vector (immunoblot, N. benthamiana leaves, 60 hpi) is 0.11 fold.
